Laboratory results taken from patent publication US20100035825A1 (University of California, published 2010).
Blank lines part the entries; values can stand above or below the binder they belong to.

B3: C/EBPβ-PThr^217 (mouse C/EBPβ phosphorylated on Thr217) (other)
chain: MHRLLAWDAACLPPPPAAFRPMEVANFYYEPDCLAYGAKAARAAPRAPAAEPAIGEHERAIDFSPYLEPLAPAADFAAPAPAHHDFLSDLFADDYGAKPSKKPADYGYVSLGRAGAKAAPPACFPPPPPAALKAEPGFEPADCKRADDAPAMAAGFPFALRAYLGYQATPSGSSGSLSTSSSSSPPGTPSPADAKAAPAACFAGPPAAPAKAKAKKTVDKLSDEYKMRRERNNIAVRKSRDKAKMRNLETQHKVLELTAENERLQKKVEQLSRELSTLRNLFKQLPEPLLASAGHC
modifications: phosphothreonine at 217
notes: Endogenous, phosphorylated in stellate cells after CCl4 or on collagen type I
B4: purified recombinant procaspase 8 (human, Alexis Biochemicals) (enzyme, UniProt Q14790 217-479, looked up)
chain: SESQTLDKVYQMKSKPRGYCLIINNHNFAKAREKVPKLHSIRDRNGTHLDAGALTTTFEELHFEIKPHDDCTVEQIYEILKIYQLMDHSNMDCFICCILSHGDKGIIYGTDGQEAPIYELTSQFTGLKCPSLAGKPKVFFIQACQGDNYQKGIPVETDSEEQPYLEMDLSSPQTRYIPDEADFLLGMATVNNCVSYRNPAEGTWYIQSLCQSLRERCPRGDDILTILTEVNYEVSNKDDKKNMGKQMPQPTFTLRKKLVFPSD
notes: also called recombinant caspase 8; procaspases 8; not shown: 21 amino acid linker at the N-terminus from the expression vector

What was measured:
[1] = molecular target: B3; test: C/EBPβ immunoprecipitation and immunoblot, stellate cells of CCl4-treated C/EBPβ+/+ mice
[2] = molecular target: B4; test: co-immunoprecipitation of purified recombinant proteins (C/EBPβ peptides 200 µM), immunoblot, densitometry; reference C/EBPβ-HA-Ala217
[3] = molecular target: T1, procaspase 8 (endogenous, mouse hepatic stellate cells) (mouse, UniProt O89110 1-480); test: anti-HA co-immunoprecipitation and immunoblot, transfected activated stellate cells
T1 construct: also called procaspases 8
T1 sequence (looked up): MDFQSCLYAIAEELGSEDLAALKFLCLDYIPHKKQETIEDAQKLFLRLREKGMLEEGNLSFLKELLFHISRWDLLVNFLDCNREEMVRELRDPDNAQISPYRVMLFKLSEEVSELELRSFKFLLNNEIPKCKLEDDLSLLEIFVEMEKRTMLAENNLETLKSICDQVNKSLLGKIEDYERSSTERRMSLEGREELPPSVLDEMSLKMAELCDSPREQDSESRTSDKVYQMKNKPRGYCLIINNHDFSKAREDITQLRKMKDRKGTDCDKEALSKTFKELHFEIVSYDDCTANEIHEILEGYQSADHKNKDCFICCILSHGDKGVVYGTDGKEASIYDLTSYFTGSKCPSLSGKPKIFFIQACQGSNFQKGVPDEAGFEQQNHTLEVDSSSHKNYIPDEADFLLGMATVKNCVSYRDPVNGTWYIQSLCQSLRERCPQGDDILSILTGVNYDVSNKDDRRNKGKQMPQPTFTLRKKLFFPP

[4] = molecular target: T2, procaspase 1 (endogenous, mouse hepatic stellate cells) (mouse, UniProt P29452 1-402); test: as above
T2 construct: also called procaspases 1
T2 sequence (looked up): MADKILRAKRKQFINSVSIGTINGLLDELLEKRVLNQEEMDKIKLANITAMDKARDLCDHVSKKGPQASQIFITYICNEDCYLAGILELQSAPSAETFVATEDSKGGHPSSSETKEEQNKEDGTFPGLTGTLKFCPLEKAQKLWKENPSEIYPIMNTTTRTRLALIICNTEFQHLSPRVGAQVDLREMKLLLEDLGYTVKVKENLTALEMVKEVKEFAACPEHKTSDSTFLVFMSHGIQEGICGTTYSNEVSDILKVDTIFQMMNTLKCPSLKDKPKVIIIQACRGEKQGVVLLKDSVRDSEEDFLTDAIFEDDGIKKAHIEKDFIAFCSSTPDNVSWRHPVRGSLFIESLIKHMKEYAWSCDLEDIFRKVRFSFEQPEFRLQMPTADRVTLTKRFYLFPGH

[5] = molecular target: T3, procaspase 7 (endogenous, mouse hepatic stellate cells) (mouse, UniProt P97864 1-303); test: C/EBPβ immunoprecipitation and immunoblot, stellate cells of CCl4-treated C/EBPβ+/+ mice
T3 construct: also called effector procaspase 7
T3 sequence (looked up): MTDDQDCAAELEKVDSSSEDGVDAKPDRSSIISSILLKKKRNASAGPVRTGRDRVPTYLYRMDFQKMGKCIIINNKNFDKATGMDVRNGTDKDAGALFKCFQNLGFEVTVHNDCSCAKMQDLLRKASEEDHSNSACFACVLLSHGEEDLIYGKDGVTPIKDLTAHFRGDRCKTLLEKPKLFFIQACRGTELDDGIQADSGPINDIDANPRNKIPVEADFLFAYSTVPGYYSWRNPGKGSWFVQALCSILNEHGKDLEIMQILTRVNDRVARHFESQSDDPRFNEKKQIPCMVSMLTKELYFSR

[6] = molecular target: T4, procaspase 9 (endogenous, mouse hepatic stellate cells) (mouse, UniProt Q8C3Q9 1-454); test: as above
T4 construct: also called effector procaspase 9
T4 sequence (looked up): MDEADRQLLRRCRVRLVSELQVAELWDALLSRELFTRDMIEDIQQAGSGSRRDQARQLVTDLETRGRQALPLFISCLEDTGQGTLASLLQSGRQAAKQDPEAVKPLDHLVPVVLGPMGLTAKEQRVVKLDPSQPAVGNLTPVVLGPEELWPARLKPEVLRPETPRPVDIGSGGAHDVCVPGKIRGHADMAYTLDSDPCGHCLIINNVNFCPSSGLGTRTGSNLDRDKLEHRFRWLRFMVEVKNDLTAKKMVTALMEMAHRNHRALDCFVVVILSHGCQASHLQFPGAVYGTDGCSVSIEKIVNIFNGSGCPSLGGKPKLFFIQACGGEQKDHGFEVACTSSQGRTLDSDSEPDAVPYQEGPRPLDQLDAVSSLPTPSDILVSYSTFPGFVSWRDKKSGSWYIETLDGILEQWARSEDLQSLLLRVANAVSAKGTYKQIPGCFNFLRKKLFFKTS

C/EBPβ-HA-Ala^217 = molecular target: T5, C/EBPβ-HA-Ala^217 (mouse, UniProt P28033 1-296, limits assumed); test: co-immunoprecipitation of purified recombinant proteins
T5 construct: not shown: HA (hemagglutinin) tag
T5 sequence: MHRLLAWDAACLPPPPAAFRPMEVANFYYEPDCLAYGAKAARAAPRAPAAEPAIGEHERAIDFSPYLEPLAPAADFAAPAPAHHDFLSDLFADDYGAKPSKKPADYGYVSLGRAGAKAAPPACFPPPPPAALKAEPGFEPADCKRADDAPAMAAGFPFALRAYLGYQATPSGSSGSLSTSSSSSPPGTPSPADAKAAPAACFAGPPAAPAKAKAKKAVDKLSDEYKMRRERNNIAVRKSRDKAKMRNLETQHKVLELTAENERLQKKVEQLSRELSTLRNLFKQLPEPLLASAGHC

binding result [1]: no binding
B1: procaspase 3 (endogenous, mouse hepatic stellate cells) (enzyme, UniProt P70677 1-277, looked up)
chain: MENNKTSVDSKSINNFEVKTIHGSKSVDSGIYLDSSYKMDYPEMGICIIINNKNFHKSTGMSSRSGTDVDAANLRETFMGLKYQVRNKNDLTREDILELMDSVSKEDHSKRSSFVCVILSHGDEGVIYGTNGPVELKKLTSFFRGDYCRSLTGKPKLFIIQACRGTELDCGIETDSGTDEEMACQKIPVEADFLYAYSTAPGYYSWRNSKDGSWFIQSLCSMLKLYAHKLEFMHILTRVNRKVATEFESFSLDSTFHAKKQIPCIVSMLTKELYFYH
notes: also called effector procaspase 3

B2: C/EBPβ-HA-Glu^217 (other, not shown: small tags and cut ends)
chain: MHRLLAWDAACLPPPPAAFRPMEVANFYYEPDCLAYGAKAARAAPRAPAAEPAIGEHERAIDFSPYLEPLAPAADFAAPAPAHHDFLSDLFADDYGAKPSKKPADYGYVSLGRAGAKAAPPACFPPPPPAALKAEPGFEPADCKRADDAPAMAAGFPFALRAYLGYQATPSGSSGSLSTSSSSSPPGTPSPADAKAAPAACFAGPPAAPAKAKAKKEVDKLSDEYKMRRERNNIAVRKSRDKAKMRNLETQHKVLELTAENERLQKKVEQLSRELSTLRNLFKQLPEPLLASAGHC
fold more co-immunoprecipitated than the Ala^217 peptides (densitometry) [2]: 12 fold
binding result [3]: binds
binding result [4]: binds

Binder: B3
binding result [5]: no binding
binding result [6]: no binding

Binder: B4
binding result (C/EBPβ-HA-Ala^217): no binding
